± gives the uncertainty stated by the source.
B1: Far upstream element-binding protein 1, residues 98 to 169; numbered along this chain, Q96AE4 (parent)
chain: RSVMTEEYKVPDGMVGFIIGRGGEQISRIQQESGCKIQIAPDSGGLPERSCMLTGTPESVQSAKRLLDQIVE

Variants of: B1
Test: abundance fitness (aPCA) (normalised: wild type 0, dead -1); higher = more abundant; growth selection in yeast, the domain comes from the species named
Conditions: Homo sapiens

In order of falling abundance fitness:
1. RSVMTEEYKVPDGMVGFIIGRGGEQISRIQQESGCKIQIAPDSGGLPERICMLTGTPESVQSAKRLLDQIVE  0.07 ± 0.052
2. RSVMTEEYKVPDGMVGFIIGRGGEQISRIQQESGCKIQIAPDSGGLPERSFMLTGTPESVQSAKRLLDQIVE  0.049 ± 0.053
3. RSVMTEEYKVPDGMVGFIIGRGGEQISRIQQESGCKIQIAPDSGGLPERNCMLTGTPESVQSAKRLLDQIVE  0.038 ± 0.046
4. RSVMTEEYKVPDGMVGFIIGRGGEQISRIQQESGCKIQIAPDSGGLPYRSCMLTGTPESVQSAKRLLDQIVE  0.02 ± 0.046
5. RSVMTEEYKVPDGMVGFIIGRGGEQISRIQQESGCKIQIAPDSGGLPERSMMLTGTPESVQSAKRLLDQIVE  0.017 ± 0.036
6. RSVMTEEYKVPDGMVGFIIGRGGEQISRIQQESGCKIQIAPDSGGLPERSVMLTGTPESVQSAKRLLDQIVE  0.006 ± 0.027
7. RSVMTEEYKVPDGMVGFIIGRGGEQISRIQQESGCKIQIAPDSGGLPERSCSLTGTPESVQSAKRLLDQIVE  0.001 ± 0.029
8. RSVMTEEYKVPDGMVGFIIGRGGEQISRIQQESGCKIQIAPDSGGLPERSCVLTGTPESVQSAKRLLDQIVE  0 ± 0.027
9. RSVMTEEYKVPDGMVGFIIGRGGEQISRIQQESGCKIQIAPDSGGLPERSCLLTGTPESVQSAKRLLDQIVE  0 ± 0.028
10. RSVMTEEYKVPDGMVGFIIGRGGEQISRIQQESGCKIQIAPDSGGLPERLCMLTGTPESVQSAKRLLDQIVE  -0.002 ± 0.028
11. RSVMTEEYKVPDGMVGFIIGRGGEQISRIQQESGCKIQIAPDSGGLPERSCCLTGTPESVQSAKRLLDQIVE  -0.004 ± 0.043
12. RSVMTEEYKVPDGMVGFIIGRGGEQISRIQQESGCKIQIAPDSGGLPERSCWLTGTPESVQSAKRLLDQIVE  -0.011 ± 0.029
13. RSVMTEEYKVPDGMVGFIIGRGGEQISRIQQESGCKIQIAPDSGGLPERRCMLTGTPESVQSAKRLLDQIVE  -0.011 ± 0.023
14. RSVMTEEYKVPDGMVGFIIGRGGEQISRIQQESGCKIQIAPDSGGLPERSCYLTGTPESVQSAKRLLDQIVE  -0.012 ± 0.053
15. RSVMTEEYKVPDGMVGFIIGRGGEQISRIQQESGCKIQIAPDSGGLPERCCMLTGTPESVQSAKRLLDQIVE  -0.015 ± 0.033
16. RSVMTEEYKVPDGMVGFIIGRGGEQISRIQQESGCKIQIAPDSGGLPERTCMLTGTPESVQSAKRLLDQIVE  -0.015 ± 0.032
17. RSVMTEEYKVPDGMVGFIIGRGGEQISRIQQESGCKIQIAPDSGGLPERSCRLTGTPESVQSAKRLLDQIVE  -0.017 ± 0.024
18. RSVMTEEYKVPDGMVGFIIGRGGEQISRIQQESGCKIQIAPDSGGLPERVCMLTGTPESVQSAKRLLDQIVE  -0.017 ± 0.027
19. RSVMTEEYKVPDGMVGFIIGRGGEQISRIQQESGCKIQIAPDSGGLPERSCILTGTPESVQSAKRLLDQIVE  -0.018 ± 0.05
20. RSVMTEEYKVPDGMVGFIIGRGGEQISRIQQESGCKIQIAPDSGGLPERMCMLTGTPESVQSAKRLLDQIVE  -0.018 ± 0.034
21. RSVMTEEYKVPDGMVGFIIGRGGEQISRIQQESGCKIQIAPDSGGLPERKCMLTGTPESVQSAKRLLDQIVE  -0.019 ± 0.034
22. RSVMTEEYKVPDGMVGFIIGRGGEQISRIQQESGCKIQIAPDSGGLPERSLMLTGTPESVQSAKRLLDQIVE  -0.019 ± 0.03
23. RSVMTEEYKVPDGMVGFIIGRGGEQISRIQQESGCKIQIAPDSGGLPERDCMLTGTPESVQSAKRLLDQIVE  -0.023 ± 0.038
24. RSVMTEEYKVPDGMVGFIIGRGGEQISRIQQESGCKIQIAPDSGGLPERSCHLTGTPESVQSAKRLLDQIVE  -0.025 ± 0.058
25. RSVMTEEYKVPDGMVGFIIGRGGEQISRIQQESGCKIQIAPDSGGLPERQCMLTGTPESVQSAKRLLDQIVE  -0.025 ± 0.033
26. RSVMTEEYKVPDGMVGFIIGRGGEQISRIQQESGCKIQIAPDSGGLPERSCQLTGTPESVQSAKRLLDQIVE  -0.032 ± 0.039
27. RSVMTEEYKVPDGMVGFIIGRGGEQISRIQQESGCKIQIAPDSGGLPERSCTLTGTPESVQSAKRLLDQIVE  -0.033 ± 0.037
28. RSVMTEEYKVPDGMVGFIIGRGGEQISRIQQESGCKIQIAPDSGGLPERPCMLTGTPESVQSAKRLLDQIVE  -0.043 ± 0.035
29. RSVMTEEYKVPDGMVGFIIGRGGEQISRIQQESGCKIQIAPDSGGLPERSCKLTGTPESVQSAKRLLDQIVE  -0.045 ± 0.034
30. RSVMTEEYKVPDGMVGFIIGRGGEQISRIQQESGCKIQIAPDSGGLPERACMLTGTPESVQSAKRLLDQIVE  -0.048 ± 0.029
31. RSVMTEEYKVPDGMVGFIIGRGGEQISRIQQESGCKIQIAPDSGGLPERSCELTGTPESVQSAKRLLDQIVE  -0.053 ± 0.031
32. RSVMTEEYKVPDGMVGFIIGRGGEQISRIQQESGCKIQIAPDSGGLPERGCMLTGTPESVQSAKRLLDQIVE  -0.054 ± 0.025
33. RSVMTEEYKVPDGMVGFIIGRGGEQISRIQQESGCKIQIAPDSGGLPERSCALTGTPESVQSAKRLLDQIVE  -0.056 ± 0.03
34. RSVMTEEYKVPDGMVGFIIGRGGEQISRIQQESGCKIQIAPDSGGLPERECMLTGTPESVQSAKRLLDQIVE  -0.06 ± 0.033
35. RSVMTEEYKVPDGMVGFIIGRGGEQISRIQQESGCKIQIAPDSGGLPERSAMLTGTPESVQSAKRLLDQIVE  -0.06 ± 0.028
36. RSVMTEEYKVPDGMVGFIIGRGGEQISRIQQESGCKIQIAPDSGGLPETSCMLTGTPESVQSAKRLLDQIVE  -0.068 ± 0.034
37. RSVMTEEYKVPDGMVGFIIGRGGEQISRIQQESGCKIQIAPDSGGLPEYSCMLTGTPESVQSAKRLLDQIVE  -0.072 ± 0.046
38. RSVMTEEYKVPDGMVGFIIGRGGEQISRIQQESGCKIQIAPDSGGLPERSCNLTGTPESVQSAKRLLDQIVE  -0.072 ± 0.052
39. RSVMTEEYKVPDGMVGFIIGRGGEQISRIQQESGCKIQIAPDSGGLPEKSCMLTGTPESVQSAKRLLDQIVE  -0.079 ± 0.037
40. RSVMTEEYKVPDGMVGFIIGRGGEQISRIQQESGCKIQIAPDSGGLPEQSCMLTGTPESVQSAKRLLDQIVE  -0.083 ± 0.038
41. RSVMTEEYKVPDGMVGFIIGRGGEQISRIQQESGCKIQIAPDSGGLPENSCMLTGTPESVQSAKRLLDQIVE  -0.085 ± 0.045
42. RSVMTEEYKVPDGMVGFIIGRGGEQISRIQQESGCKIQIAPDSGGLPESSCMLTGTPESVQSAKRLLDQIVE  -0.086 ± 0.029
43. RSVMTEEYKVPDGMVGFIIGRGGEQISRIQQESGCKIQIAPDSGGLPEASCMLTGTPESVQSAKRLLDQIVE  -0.088 ± 0.031
44. RSVMTEEYKVPDGMVGFIIGRGGEQISRIQQESGCKIQIAPDSGGLPEGSCMLTGTPESVQSAKRLLDQIVE  -0.088 ± 0.026
45. RSVMTEEYKVPDGMVGFIIGRGGEQISRIQQESGCKIQIAPDSGGLPERSTMLTGTPESVQSAKRLLDQIVE  -0.093 ± 0.033
46. RSVMTEEYKVPDGMVGFIIGRGGEQISRIQQESGCKIQIAPDSGGLPERHCMLTGTPESVQSAKRLLDQIVE  -0.105 ± 0.044
47. RSVMTEEYKVPDGMVGFIIGRGGEQISRIQQESGCKIQIAPDSGGLPEHSCMLTGTPESVQSAKRLLDQIVE  -0.106 ± 0.054
48. RSVMTEEYKVPDGMVGFIIGRGGEQISRIQQESGCKIQIAPDSGGLPERSWMLTGTPESVQSAKRLLDQIVE  -0.108 ± 0.03
49. RSVMTEEYKVPDGMVGFIIGRGGEQISRIQQESGCKIQIAPDSGGLPEVSCMLTGTPESVQSAKRLLDQIVE  -0.116 ± 0.03
50. RSVMTEEYKVPDGMVGFIIGRGGEQISRIQQESGCKIQIAPDSGGLPERSYMLTGTPESVQSAKRLLDQIVE  -0.116 ± 0.046
51. RSVMTEEYKVPDGMVGFIIGRGGEQISRIQQESGCKIQIAPDSGGLPERYCMLTGTPESVQSAKRLLDQIVE  -0.117 ± 0.038
52. RSVMTEEYKVPDGMVGFIIGRGGEQISRIQQESGCKIQIAPDSGGLPEISCMLTGTPESVQSAKRLLDQIVE  -0.133 ± 0.045
53. RSVMTEEYKVPDGMVGFIIGRGGEQISRIQQESGCKIQIAPDSGGLPERSCGLTGTPESVQSAKRLLDQIVE  -0.137 ± 0.024
54. RSVMTEEYKVPDGMVGFIIGRGGEQISRIQQESGCKIQIAPDSGGLPERSCDLTGTPESVQSAKRLLDQIVE  -0.139 ± 0.039
55. RSVMTEEYKVPDGMVGFIIGRGGEQISRIQQESGCKIQIAPDSGGLPEPSCMLTGTPESVQSAKRLLDQIVE  -0.144 ± 0.04
56. RSVMTEEYKVPDGMVGFIIGRGGEQISRIQQESGCKIQIAPDSGGLPEDSCMLTGTPESVQSAKRLLDQIVE  -0.172 ± 0.045
57. RSVMTEEYKVPDGMVGFIIGRGGEQISRIQQESGCKIQIAPDSGGLPERWCMLTGTPESVQSAKRLLDQIVE  -0.174 ± 0.03
58. RSVMTEEYKVPDGMVGFIIGRGGEQISRIQQESGCKIQIAPDSGGLPERFCMLTGTPESVQSAKRLLDQIVE  -0.177 ± 0.051
59. RSVMTEEYKVPDGMVGFIIGRGGEQISRIQQESGCKIQIAPDSGGLPELSCMLTGTPESVQSAKRLLDQIVE  -0.18 ± 0.03
60. RSVMTEEYKVPDGMVGFIIGRGGEQISRIQQESGCKIQIAPDSGGLPECSCMLTGTPESVQSAKRLLDQIVE  -0.183 ± 0.041
61. RSVMTEEYKVPDGMVGFIIGRGGEQISRIQQESGCKIQIAPDSGGLPEESCMLTGTPESVQSAKRLLDQIVE  -0.188 ± 0.033
62. RSVMTEEYKVPDGMVGFIIGRGGEQISRIQQESGCKIQIAPDSGGLPEFSCMLTGTPESVQSAKRLLDQIVE  -0.248 ± 0.049
63. RSVMTEEYKVPDGMVGFIIGRGGEQISRIQQESGCKIQIAPDSGGLPERSSMLTGTPESVQSAKRLLDQIVE  -0.284 ± 0.029
64. RSVMTEEYKVPDGMVGFIIGRGGEQISRIQQESGCKIQIAPDSGGLPEWSCMLTGTPESVQSAKRLLDQIVE  -0.318 ± 0.032
65. RSVMTEEYKVPDGMVGFIIGRGGEQISRIQQESGCKIQIAPDSGGLPERSGMLTGTPESVQSAKRLLDQIVE  -0.417 ± 0.024
66. RSVMTEEYKVPDGMVGFIIGRGGEQISRIQQESGCKIQIAPDSGGLPERSPMLTGTPESVQSAKRLLDQIVE  -0.597 ± 0.042
67. RSVMTEEYKVPDGMVGFIIGRGGEQISRIQQESGCKIQIAPDSGGLPERSCPLTGTPESVQSAKRLLDQIVE  -0.625 ± 0.046
68. RSVMTEEYKVPDGMVGFIIGRGGEQISRIQQESGCKIQIAPDSGGLPERSHMLTGTPESVQSAKRLLDQIVE  -0.718 ± 0.091
69. RSVMTEEYKVPDGMVGFIIGRGGEQISRIQQESGCKIQIAPDSGGLPERSCMATGTPESVQSAKRLLDQIVE  -0.719 ± 0.039
70. RSVMTEEYKVPDGMVGFIIGRGGEQISRIQQESGCKIQIAPDSGGLPERSQMLTGTPESVQSAKRLLDQIVE  -0.818 ± 0.068
71. RSVMTEEYKVPDGMVGFIIGRGGEQISRIQQESGCKIQIAPDSGGLPERSDMLTGTPESVQSAKRLLDQIVE  -0.956 ± 0.082
72. RSVMTEEYKVPDGMVGFIIGRGGEQISRIQQESGCKIQIAPDSGGLPERSRMLTGTPESVQSAKRLLDQIVE  -0.984 ± 0.037
73. RSVMTEEYKVPDGMVGFIIGRGGEQISRIQQESGCKIQIAPDSGGLPERSCMDTGTPESVQSAKRLLDQIVE  -1 ± 0.092
74. RSVMTEEYKVPDGMVGFIIGRGGEQISRIQQESGCKIQIAPDSGGLPERSEMLTGTPESVQSAKRLLDQIVE  -1 ± 0.059
75. RSVMTEEYKVPDGMVGFIIGRGGEQISRIQQESGCKIQIAPDSGGLPERSKMLTGTPESVQSAKRLLDQIVE  -1.12 ± 0.087
